Measured values from publication PMC9868005, “Structural and functional characterization of TraI from pKM101 reveals basis for DNA processing”.

Experiments:
TraI full-length = target: T1, TraI full-length (Escherichia coli? (plasmid pKM101), UniProt D9Z5Q2 3-1079); assay: EMSA; complete shift at 200 nM and above; high shift from 50 nM; EMSA: 50 nM FITC-DNA, 0-1600 nM protein, 25 mM Hepes-NaOH pH 7.0, 300 mM NaCl, room temperature 15 min; 5% PAGE, 0.75x TBE, 4 C; settings: protein: recombinant; tags: 10xHis with 3C site, cleaved off; label: 5' FITC; hairpin
T1 sequence: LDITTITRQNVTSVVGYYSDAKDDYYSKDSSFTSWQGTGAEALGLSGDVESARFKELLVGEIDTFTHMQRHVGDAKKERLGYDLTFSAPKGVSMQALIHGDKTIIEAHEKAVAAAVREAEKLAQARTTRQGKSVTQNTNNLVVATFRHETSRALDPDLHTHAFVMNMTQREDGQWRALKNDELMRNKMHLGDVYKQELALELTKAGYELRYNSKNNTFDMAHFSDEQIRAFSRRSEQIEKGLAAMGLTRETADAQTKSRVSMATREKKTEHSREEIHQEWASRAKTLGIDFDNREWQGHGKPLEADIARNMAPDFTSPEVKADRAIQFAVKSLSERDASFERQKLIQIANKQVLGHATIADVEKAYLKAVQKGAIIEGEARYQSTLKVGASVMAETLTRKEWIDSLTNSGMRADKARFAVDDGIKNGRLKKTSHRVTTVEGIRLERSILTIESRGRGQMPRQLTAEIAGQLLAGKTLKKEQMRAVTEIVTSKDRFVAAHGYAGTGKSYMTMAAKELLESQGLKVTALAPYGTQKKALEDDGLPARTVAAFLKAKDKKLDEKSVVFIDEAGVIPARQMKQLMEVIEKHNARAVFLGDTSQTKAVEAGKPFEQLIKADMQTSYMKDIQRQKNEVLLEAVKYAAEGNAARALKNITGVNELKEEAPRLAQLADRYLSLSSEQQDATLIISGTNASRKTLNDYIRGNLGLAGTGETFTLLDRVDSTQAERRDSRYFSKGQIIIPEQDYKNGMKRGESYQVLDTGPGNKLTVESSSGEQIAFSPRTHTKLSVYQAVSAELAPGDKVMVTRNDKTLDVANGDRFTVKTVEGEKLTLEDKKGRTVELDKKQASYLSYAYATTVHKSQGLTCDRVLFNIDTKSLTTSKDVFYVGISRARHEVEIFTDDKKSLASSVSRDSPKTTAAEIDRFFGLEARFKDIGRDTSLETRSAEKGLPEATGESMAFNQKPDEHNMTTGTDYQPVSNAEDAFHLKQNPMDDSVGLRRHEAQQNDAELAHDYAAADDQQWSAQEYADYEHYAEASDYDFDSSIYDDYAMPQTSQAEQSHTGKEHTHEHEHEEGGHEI

[1] = target: T2, TraI trans-esterase domain (TraI-TE) (Escherichia coli? (plasmid pKM101), UniProt D9Z5Q2 1-299); assay: EMSA; over half bound at 200 nM; EMSA: 50 nM FITC-DNA, 0-1600 nM protein, 25 mM Hepes-NaOH pH 7.0, 300 mM NaCl, room temperature 15 min; 5% PAGE, 0.75x TBE, 4 C; settings: protein: recombinant; tags: 10xHis with 3C site, cleaved off; label: 5' FITC; hairpin
T2 sequence: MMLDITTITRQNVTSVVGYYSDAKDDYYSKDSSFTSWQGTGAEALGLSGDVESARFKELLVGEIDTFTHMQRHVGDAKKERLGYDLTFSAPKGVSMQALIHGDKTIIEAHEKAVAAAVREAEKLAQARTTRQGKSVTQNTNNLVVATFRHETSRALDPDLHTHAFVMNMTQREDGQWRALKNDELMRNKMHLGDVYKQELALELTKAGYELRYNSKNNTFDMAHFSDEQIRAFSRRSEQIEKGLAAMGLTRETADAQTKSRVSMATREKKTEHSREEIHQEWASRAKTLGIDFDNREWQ

[2] = target: T2, TraI trans-esterase domain (TraI-TE); assay: EMSA; interaction only seen above 800 nM; EMSA: 50 nM FITC-DNA, 0-1600 nM protein, 25 mM Hepes-NaOH pH 7.0, 300 mM NaCl, room temperature 15 min; 5% PAGE, 0.75x TBE, 4 C; settings: protein: recombinant; tags: 10xHis with 3C site, cleaved off; label: 5' FITC
[3] = target: T2, TraI trans-esterase domain (TraI-TE); assay: EMSA; apparent Kd, half-shift point; EMSA: 50 nM FITC-DNA, 0-1600 nM protein, 25 mM Hepes-NaOH pH 7.0, 300 mM NaCl, room temperature 15 min; 5% PAGE, 0.75x TBE, 4 C; settings: protein: recombinant; tags: 10xHis with 3C site, cleaved off; label: 5' FITC; hairpin
[4] = target: T2, TraI trans-esterase domain (TraI-TE); assay: X-ray crystallography 2.1 A; divalent cation modeled as Mn2+ (identity uncertain); 10 of 11 bases modeled; EMSA: 50 nM FITC-DNA, 0-1600 nM protein, 25 mM Hepes-NaOH pH 7.0, 300 mM NaCl, room temperature 15 min; 5% PAGE, 0.75x TBE, 4 C; settings: protein: recombinant; tags: 10xHis with 3C site, cleaved off; U-turn in complex

TGTGATAGCGTGATTTATCGCGCTGCGTTAGGTGT (structured_DNA) [F-oriT35]
apparent K (half saturation) (TraI full-length): < 200 nM
apparent K (half saturation) [1]: < 200 nM

B1: F-Random57 (ssDNA)
DNA: TCCGCCATGCAGACGAGACCAGTCGGAGATTACCGAGCATTCTATCAGGTCGGCGAC
apparent K (half saturation) [2]: > 800 nM

B2: F-oriT57 (structured_DNA)
DNA: TGTGATAGCGTGATTTATCGCGCTGCGTTAGGTGTATAGCAGGTTAAGGGATAAAAA
Kd [3]: < 200 nM
apparent K (half saturation) (TraI full-length): < 200 nM

GCGTTAGGTGT (ssDNA) [oriT11]
binding result [4]: binds
